Experimental data: the supplement of paper PMC11865577

How the values were obtained:
Test in all cases: pull-down binding Z-score (relative to library population); higher = stronger binding
[1] = tested on: G-clamp-N3 (biotin conjugate); conditions: RNA library: Library-1 (pre-miRNA loops + repeats)
Procedure, shortened: (§1)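 An RNA library (1 μg) carrying a Cy5 or Cy3 end label was heat-folded in phosphate/NaCl/KCl buffer, then incubated for 60 min at 25 °C with streptavidin beads loaded with 100 pmol of biotin-conjugated small molecule. The beads were washed three times, and bound RNA was released in hot SDS and hybridised to a DNA barcode microarray for 20 h at 55.5 °C. Each binding score was derived by subtracting the signal from beads without compound, averaging the barcoded replicate probes after removing the highest and lowest, and expressing the result as a Z-score relative to the library mean and standard deviation.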

[2] = tested on: TO-3-N3 (biotin conjugate); conditions: RNA library: Library-2
Procedure, shortened: as §1

[3] = tested on: TO-3-N3-2 (biotin conjugate); conditions: RNA library: Library-2
Procedure, shortened: as §1

[4] = tested on: TO-N3 (biotin conjugate); conditions: RNA library: Library-2
Procedure, shortened: as §1

[5] = tested on: TO-N3-2 (biotin conjugate); conditions: RNA library: Library-2
Procedure, shortened: as §1

Sequence | pull-down binding Z-score [1] | pull-down binding Z-score [2] | pull-down binding Z-score [3] | pull-down binding Z-score [4] | pull-down binding Z-score [5]
UCAGGGAGAAAGUGCAUACAGCCCCUG [hsa-mir-328] | -0.344 | -0.47 | -0.166 | -0.112 | 0.36
UCCUGAGCUAGGAGGAUUAGGA [hsa-mir-5093] | 1.05 | -0.171 | -0.0611 | -0.07 | 0.417
UGAUUUGUGACUUAAGAUUAAAAUCA [hsa-mir-23b] | -0.478 | -0.415 | 0.0381 | -0.499 | -0.649
AGAGCACCUCCUAGAGAAUGUUGAACUAAAGGUGCCC [hsa-mir-4723] | -0.814 | 0.573 | 0.528 | 0.813 | 1.16
UCUGCUUUGAUGAAAUAAAGCAGA [hsa-mir-4773-2] | -0.541 | -0.145 | -0.423 | -0.206 | -1.05
UCCUGGGAAGCAUGGUAGCCAGGA [hsa-mir-5192] | 2.06 | 0.314 | 0.431 | 0.319 | 0.994
GCUACUGUCUGCACCUGUCACUAGCAGU [hsa-mir-130a] | -1.49 | -0.279 | -0.0477 | 1.12 | 1.58
GAUUGAAGUUGAAUAGUGC [hsa-mir-3161] | 0.429 | -0.231 | 0.274 | -0.125 | 0.0514
GGUGCAGUCAGUCCUAGCUC [hsa-mir-3135b] | -1.49 | -0.343 | 0.0356 | 0.224 | 1.06
GUGUCUGGAGACGCCAGGCAGC [hsa-mir-4323] | -0.529 | -0.154 | -0.352 | 0.127 | 1.13
UUUCUUAAAUUUUAUAUAUUGGAA [hsa-mir-1284] | -0.71 | 0.193 | -0.0723 | -0.124 | -1.11
AUAGUUGAGGAGGACACCCAAGGAGAUCACUAU [hsa-let-7e] | -0.413 | 0.341 | 0.863 | 0.871 | 1.26
UAUCUAUAUAUAUGUGUA [hsa-mir-3171] | -0.471 | -0.0511 | -0.0303 | -0.0908 | 0.835
UUUGUAUUGUGGUUCAGUACCAUGCAAA [hsa-mir-6507] | -0.552 | -0.367 | -0.36 | -0.633 | -0.933
CGGGAACCUGCCUCCCG [hsa-mir-596] | -0.566 | 0.264 | -0.195 | 0.0562 | -0.232
UUUUGCAAUUUUUUAAUGACAAAA [hsa-mir-548t] | -0.195 | -0.494 | -0.334 | -0.585 | -0.704
UUAACAUGUUGAGCAUUACUCAUGUUAG [hsa-mir-3684] | -0.319 | -0.527 | -0.175 | -0.597 | -0.162
UGGGUUGUGUCAGUGUCAGACCUC [hsa-mir-146a] | -0.421 | -0.496 | -0.00346 | 0.187 | 0.838
GGGGCCCUACUUUAAGGGCCCU [hsa-mir-8087] | 1.03 | 0.997 | 0.194 | 0.868 | -0.706
GAUGGAUUCUUAUGCUCCAUC [hsa-mir-136] | 0.328 | -0.326 | -0.443 | -0.631 | -0.9

Sequence | pull-down binding Z-score [1] | pull-down binding Z-score [2] | pull-down binding Z-score [3] | pull-down binding Z-score [4] | pull-down binding Z-score [5]
UCAGAUAUUUAAGUUAACAGUAUUUGA [hsa-mir-580] | 0.0815 | -0.784 | -0.347 | -1.1 | -1.5
UUGGUCUUUCCCCUGUGGUCCCAA [hsa-mir-2909] | -0.499 | -0.158 | 0.152 | -0.276 | 0.207
AUAUAAGGGAAGGCAUUAUAG [hsa-mir-3117] | 0.00615 | 0.00808 | 0.0974 | 0.0219 | -0.234
UGUUUUUGCCAUUAAAAAUAAUGGCAUUAAAAGUAAUGGCAAAAACG [hsa-mir-548al] | -0.871 | -0.484 | -0.431 | -1.01 | -1.14
UUCCGGUGAUUAUCACAGCCAUGCCUUUACCUCCAGAA [hsa-mir-4493] | -0.101 | -0.84 | -0.0994 | -0.594 | -0.00535
GGAGCUCUGUGCCUUUGGGUCCUGGUGAGCUCU [hsa-mir-6070] | 0.246 | 0.271 | -0.129 | 0.413 | 0.681
AUGUCUGCUGGGGAACCGGGGCU [hsa-mir-4518] | 1.1 | 0.587 | 0.297 | 0.984 | 1.39
UCUGUUUGUUUUCUCUUAAACA [hsa-mir-519d] | -0.0316 | -0.418 | -0.553 | -0.828 | -0.847
CUGCAGUGAGUAGGUCUGCCU [hsa-mir-4254] | -0.362 | 0.19 | 0.253 | 0.705 | 1.17
UAAUGAUUGGAGUCAUUUUCAGAGCAUUA [hsa-mir-3202-1] | 1.44 | -0.304 | -0.262 | -0.407 | -0.537
AGGCCUGAGUCUCUCUGCUGCAGAUGGGCUC [hsa-mir-422a] | -0.38 | -0.112 | -0.0262 | 0.668 | 1.29
CGCCAGCUCGCUGACAGCACGACUCAGGGCG [hsa-mir-658] | 0.902 | -0.127 | 0.383 | 0.25 | 1.15
UAAGUUGUGAUCAUACCA [hsa-mir-1273g] | -1.51 | -0.424 | -0.0944 | -0.24 | 0.165
GGCUCUGGGUCCUGCUCCUUAGAGCA [hsa-mir-2467] | 0.344 | 0.259 | -0.0911 | 0.575 | 0.837
CUGCAGGGACUGUGACACUGAA [hsa-mir-6816] | 1.64 | -0.0339 | 0.24 | 0.85 | 1.22
UUACUCACCCUCUCAAAACCGAGACUCAGAGACGUUGGGUAA [hsa-mir-7973-2] | -1.63 | -0.25 | 0.138 | -0.0759 | 0.271
GGGGUUUUUGCCUCCAACUGACUCC [hsa-mir-155] | -0.504 | -0.366 | -0.283 | -0.292 | -0.135
GGCGGGCGGCGGUGCCCGUC [hsa-mir-4449] | 1.71 | 0.739 | 0.0801 | 1.53 | 0.91
CCUGCCACGUCAAAGGAGGCAGA [hsa-mir-3154] | 1.11 | -0.302 | -0.38 | -0.164 | 0.137
GUGGAACUGACCUGCCCCCUUUCUC [hsa-mir-6817] | -1.77 | 0.152 | 0.124 | 0.517 | 0.882

Sequence | pull-down binding Z-score [1] | pull-down binding Z-score [2] | pull-down binding Z-score [3] | pull-down binding Z-score [4] | pull-down binding Z-score [5]
GACCAAAAGUCAACAUUAAACAACAAAUCUUGGCC [hsa-mir-5708] | -1.3 | -0.733 | -0.109 | -1.02 | -0.998
UGUUGGUUGAAGAUGCCUUUCAACA [hsa-mir-552] | 0.0946 | -0.807 | -0.396 | -0.937 | -0.598
CACGAGAUACCAGUGUGCACUUGUG [hsa-mir-542] | -0.858 | -0.51 | -0.425 | -0.441 | 0.103
CAGGCAGUGGAGUUACUU [hsa-mir-600] | -1.07 | 0.683 | 0.557 | 1.01 | 1
CUGUGCAGAACAUCCGCUCACCUGUACAG [hsa-mir-214] | 0.104 | 0.0427 | -0.43 | 0.0753 | 0.171
GUGGCUUGUGGCUGAGUGUCACGCUGC [hsa-mir-6068] | 0.217 | -0.567 | -0.233 | -0.254 | 0.225
CACUUUCUGCUCUCUGGUGAAAGUG [hsa-mir-371a] | 0.951 | 0.0211 | -0.0736 | -0.0106 | -0.309
GUCUGCCAAGGUUUUGGCAGAC [hsa-mir-3913-2] | 0.558 | -0.58 | -0.539 | -0.992 | -1.2
CGCUGCUGGCUGCCUUCCAGCG [hsa-mir-4533] | 0.074 | 0.221 | -0.568 | 0.079 | 0.26
UAAGAGUAAUAGCUCUCUAGGUUAUUAUGAAUA [hsa-mir-5692c-1] | -0.762 | -0.283 | 0.109 | -0.449 | -0.712
CGAGAAGCGCCUGCGUCUCCCAUUUUCG [hsa-mir-3944] | -1 | 0.199 | 0.16 | 0.763 | 1.37
ACUUCAGAUGCUUCAUGACA [hsa-mir-6865] | -0.511 | -0.0886 | -0.117 | -0.0452 | -0.0136
CGUUCCAAUGCGACACCUCUAGAGUGUCAUCCCCUAGAAUGUCACCUUGGAAAG [hsa-mir-4432] | -1.26 | -0.119 | -0.104 | -0.0844 | -0.0713
GGGAGUGGUUCCAUCACGCCUCCUCAC [hsa-mir-483] | -0.668 | -0.089 | -0.147 | 0.311 | 0.658
CUCGGGAGGCUGAG [hsa-mir-4419a] | 1.91 | -0.569 | -0.459 | -0.51 | 0.147
UGGGUUAAGCCGAGCUGG [hsa-mir-4507] | 1.25 | 0.478 | 0.297 | 0.872 | 1.05
UCCAGAGGCAUCCCUAACCCAGAAUCUUUUGACUGUCCUCUGGA [hsa-mir-4306] | -0.668 | -0.198 | -0.358 | -0.253 | -0.281
GUUUAUUUUGUAGC [hsa-mir-4317] | -1.09 | 0.299 | -0.0511 | 0.221 | -0.593
